According to article doi:10.1101/2023.01.07.523125:

Target: human Slack channel (Slo2.2, KCNT1) (human) (UniProt Q5JUK3)
Assay: cryo-EM structure

## human Slack channel (Slo2.2, KCNT1) (from UniProt Q5JUK3 1-1230) (natural protein)
  stoichiometry N: 4
